Patent US12514920B1, “Respiratory syncytial virus mRNA vaccine, and preparation method therefor and use thereof” (Hangzhou Tianlong Pharmaceutical Co., Ltd., priority 2024, dated 2026)
Changes are numbered by the printed parent chain.

B1: YK-RSV-048 (protein)
chain: QNITEEFYQSTCSAVSKGYLGALRTGWYTSVITIELSNIKENKCNGTDAKVKLIKQELDKYKNAVTDLQLLMQSTPATGSGSFLGFLCGVGSAIASGVAVSKVLHLEGEVNKIKSALLSTNKAVVSLSNGVSVLTFKVLDLKNYIDKQLLPILNKQSCSIPNIETVIEFQQKNNRLLEITREFSVNAGVTTPVSTYMLTNSELLSLINDMPITNDQKKLMSNNVQIVRQQSYSIMSIIKEEVLAYVVQLPLYGVIDTPCWKLHTSPLCTTNTKEGSNICLTRTDRGWYCDNAGSVSFFPQAETCKVQSNRVFCDTMCSRTLPSEVNLCNVDIFNPKYDCKIMTSKTDVSSSVITSLGAIVSCYGKTKCTASNKNRGIIKTFSNGCDYVSNKGVDTVSVGNTLYYVNKQEGQSLYVKGEPIINFYDPLVFPSDEFDASISQVNEKINQSLAFIRKSDELLHNVNAGKSTTNIMITTIIIVIIVILLSLIAVGLLLY
B2: YK-RSV-050 (protein)
chain: B1 chain with L87C, C88L
B3: YK-RSV-009 (protein)
chain: QNITEEFYCSTCSAVSKGYLGALRTGWYTSVILIELSNIKENKCNGTDAKVKLIKQELDKYKNAVTDLQLLMQSTPATGSGSAIASGVAVSKVLHLEGEVNKIKSALLSTNKAVVSLSNGVSVLTFKVLDLKNYIDKQLLPIVNKQSCSIPNIETVIEFQQKNNRLLEITREFSVNAGVTTPVSTYMLTNSELLSLINDMPITNDQKKLMSNNVQIVRQQSYSIMSIIKEEVLAYVVQLPLYGVIDTPCWKLHTSPLCTTNTKEGSNICLTRTDRGWYCDNAGSVSFFPQAETCKVQSNRVFCDTMNSRTLPSEVNLCNVDIFNPKYDCKIMTSKTDVSSSVITSLGAIVSCYGKTKCTASNKNRGIIKTFSNGCDYVSNKGVDTVSVGNTLYYVNKQEGQSLYVKCEPIINFYDPLVFPSSEFDASISQVNEKINQSLAFIRKSDELLHNVNAGKSTTNIMITTIIIVIIVILLSLIAVGLLLY
B4: YK-RSV-010 (protein)
chain: B3 chain with C9Q, S30C, L124C, C407G
B5: YK-RSV-043 (protein)
chain: B3 chain with C9Q, L33T, T75C, S86C, V143L, C407G, S422D
B6: YK-RSV-055 (protein)
chain: B3 chain with C9Q, L33T, A83C, V143L, I228C, C407G, S422D
B7: YK-RSV-057 (protein)
chain: B3 chain with C9Q, L33T, A83C, V143L, I227C, C407G, S422D

System: RSV pre-F antibody (3C12)
Assay: ELISA binding of RSV F antigen mutants, epitope Φ
Conditions: ELISA; antibodies 3C12, 7H11, 7E11
Method: (§1) To investigate the binding of the RSV F antigen mutants to antibodies recognizing different epitopes, the binding amount was determined by an ELISA method in this example.
(§2) • 293T cells (purchased from ATCC cell bank); • Primary antibody: RSV pre-F antibody (3C12), epitope ([…] (Novoprotein, Cat. No.: DA101); • RSV pre-F antibody (7H11), epitope Quaternary (Novoprotein, Cat. No.: DA109); • RSV F antibody (11A9), epitope II (Novoprotein, Cat. No.: DA091); • RSV F antibody (4B9), epitope III (Novoprotein, Cat. No.: DA110); • RSV pre-F antibody (7E11), epitope V (Cat. No.: DA119); • Standard: RSV-pre-F trimer protein (Novoprotein, Cat. No.: DRA230); • Secondary antibody: peroxidase AffiniPure goat anti-human IgG (H+L) (Yeasen, Cat. No.: N/A); • Experimental group: mRNA vaccines after screening in Example 5;
(§3) Cell culture and transfection, and protein sample preparation: the experimental procedures were the same as in Example 3.
(§4) Detection of antigen expression by ELISA: the experimental procedures were the same as in Example 5.
(§5) In the present application, the binding of different mutant antigens to antibodies recognizing different epitopes was detected by ELISA, and the strength of the binding of the antigens to the antibodies was measured by the binding amount. (1) The RSV pre-F antibody (3C12) recognizing the epitope Φ binds only to the F protein in the pre-fusion conformation; (2) the RSV pre-F antibody (7H11) recognizes the epitope Quaternary (spanning both epitopes IV and V) and specifically binds to the F protein in the pre-fusion conformation; (3) the RSV F antibody (11A9) recognizing the epitope II can recognize both the pre-fusion and post-fusion conformations of the F protein; (4) the RSV F antibody […] recognizing the epitope III preferentially recognizes the pre-fusion conformation and has relatively weak binding activity for the post-fusion conformation; (5) the RSV pre-F antibody (7E11) recognizing the epitope V binds only to the F protein in the pre-fusion conformation.

With B1 the “binding of epitope Φ, epitope Quaternary and epitope V to the corresponding antibodies (in words)” value was “able to well bind”.
In the case of B2, the “binding of epitope Φ, epitope Quaternary and epitope V to the corresponding antibodies (in words)” value is reported as “able to well bind”.

Same assay, conditions: epitope Φ

Going from B3 to B4, the “ELISA binding amount, Epitope Φ, RSV pre-F antibody (3C12)” value (“ELISA binding amount, Epitope Φ” for short) rises from 521 ng/mL to 838 ng/mL (1.6-fold).

Compared with B5, B1 is 2.9-fold lower in “ELISA binding amount, Epitope Φ” value: 9445 ng/mL for the first, 3306 ng/mL for the second.

First: B2
Second: B6
The “ELISA binding amount, Epitope Φ” value of the first is 2.8-fold lower: 3068 ng/mL for the first, 8589 ng/mL for the second.

For B7, the “ELISA binding amount, Epitope Φ” value was 5210 ng/mL.

Same assay, conditions: epitope Φ, antibody 3C12; relative to PC-RSV-064

Compared with B3, B4 is higher in “Binding amount to antibody/binding amount of PC-RSV-064 to antibody, Epitope Φ” value: 0.19 for the first, 0.30 for the second.

Compared with B5, B1 is lower in “Binding amount to antibody/binding amount of PC-RSV-064 to antibody, Epitope Φ” value: 3.41 for the first, 1.19 for the second.

First: B2
Second: B6
The “Binding amount to antibody/binding amount of PC-RSV-064 to antibody, Epitope Φ” value of the first is lower: 1.11 for the first, 3.10 for the second.

B7 was tested, and the “Binding amount to antibody/binding amount of PC-RSV-064 to antibody, Epitope Φ” value was 1.88.

System: RSV pre-F antibody (7E11)
Assay: ELISA binding of RSV F antigen mutants, epitope V
Conditions: not given
Method: as §1, §2, §3, §4, §5

Going from B3 to B4, the “ELISA binding amount, Epitope V, RSV F antibody (7E11)” value (from here on “ELISA binding amount, Epitope V”) rises from 43 ng/mL to 139 ng/mL (3.2-fold).

B5 and B1 are within 1.5-fold of each other in “ELISA binding amount, Epitope V” value: 223 ng/mL for the first, 217 ng/mL for the second.

First: B2
Second: B6
The “ELISA binding amount, Epitope V” value of the first is 10-fold higher: 923 ng/mL for the first, 91 ng/mL for the second.

With B7 the “ELISA binding amount, Epitope V” value was 129 ng/mL.

Same assay, conditions: antibody 7E11, relative to PC-RSV-064

Compared with B3, B4 is higher in “Binding amount to antibody/binding amount of PC-RSV-064 to antibody, Epitope V” value: 0.13 for the first, 0.43 for the second.

First: B5
Second: B1
The “Binding amount to antibody/binding amount of PC-RSV-064 to antibody, Epitope V” value of the first is higher: 0.69 for the first, 0.68 for the second.

First: B2
Second: B6
The “Binding amount to antibody/binding amount of PC-RSV-064 to antibody, Epitope V” value of the first is higher: 2.88 for the first, 0.28 for the second.

For B7, the “Binding amount to antibody/binding amount of PC-RSV-064 to antibody, Epitope V” value was 0.40.

System: RSV F antibody (11A9)
Assay: ELISA binding of RSV F antigen mutants, epitope II
Conditions: not given
Method: as §1, §2, §3, §4, §5

Compared with B3, B4 is 1.7-fold higher in “ELISA binding amount, Epitope II, RSV F antibody (11A9)” value (from here on “ELISA binding amount … (11A9)”): 203 ng/mL for the first, 336 ng/mL for the second.

First: B5
Second: B1
The “ELISA binding amount … (11A9)” value of the first is 2-fold higher: 4610 ng/mL for the first, 2255 ng/mL for the second.

Compared with B2, B6 is 1.6-fold higher in “ELISA binding amount … (11A9)” value: 2474 ng/mL for the first, 3856 ng/mL for the second.

B7 was tested, and the “ELISA binding amount … (11A9)” value was 2823 ng/mL.

Same assay, conditions: antibody 11A9, relative to PC-RSV-064

Going from B3 to B4, the “Binding amount to antibody/binding amount of PC-RSV-064 to antibody, Epitope II” value rises from 0.10 to 0.16.

Going from B5 to B1, the “Binding amount to antibody/binding amount of PC-RSV-064 to antibody, Epitope II” value falls from 2.20 to 1.07.

First: B2
Second: B6
The “Binding amount to antibody/binding amount of PC-RSV-064 to antibody, Epitope II” value of the first is lower: 1.18 for the first, 1.84 for the second.

In the case of B7, the “Binding amount to antibody/binding amount of PC-RSV-064 to antibody, Epitope II” value is reported as 1.34.

System: RSV F antibody (11A9)
Assay: Binding of epitope II of RSV F antigen mutants by flow cytometry
Conditions: epitope II, antibody 11A9
Outline: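 293T cells were transfected with mRNA-LNP (300 ng mRNA) encoding the RSV F mutants and harvested after 16 h. Cells were stained with fluorescent 3C12 (pre-F-specific epitope Φ) or 11A9 (epitope II, pre-F and post-F) for 2 h at 4 °C in the dark, then washed and read by flow cytometry on 1×10^4 cells per measurement.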

Going from B3 to B1, the “RSV F antibody (11A9) Epitope II (%) binding rate” value rises from 93.1% to 95.1%.

With B2 the “RSV F antibody (11A9) Epitope II (%) binding rate” value was 93.0%.

System: RSV F antibody (4B9)
Assay: ELISA binding of RSV F antigen mutants, epitope III
Conditions: not given
Method: as §1, §2, §3, §4, §5

B3 and B4 are within 1.5-fold of each other in “ELISA binding amount, Epitope III, RSV F antibody (4B9)” value (shortened to “ELISA binding amount, Epitope III”): 358 ng/mL for the first, 534 ng/mL for the second.

B5 and B1 are within 1.5-fold of each other in “ELISA binding amount, Epitope III” value: 6529 ng/mL for the first, 4655 ng/mL for the second.

Going from B2 to B6, the “ELISA binding amount, Epitope III” value rises from 3494 ng/mL to 7298 ng/mL (2.1-fold).

With B7 the “ELISA binding amount, Epitope III” value was 4779 ng/mL.

Same assay, conditions: antibody 4B9, relative to PC-RSV-064

Going from B3 to B4, the “Binding amount to antibody/binding amount of PC-RSV-064 to antibody, Epitope III” value rises from 0.12 to 0.19.

First: B5
Second: B1
The “Binding amount to antibody/binding amount of PC-RSV-064 to antibody, Epitope III” value of the first is higher: 2.28 for the first, 1.62 for the second.

First: B2
Second: B6
The “Binding amount to antibody/binding amount of PC-RSV-064 to antibody, Epitope III” value of the first is lower: 1.22 for the first, 2.54 for the second.

With B7 the “Binding amount to antibody/binding amount of PC-RSV-064 to antibody, Epitope III” value was 1.67.

System: RSV pre-F antibody (7H11)
Assay: ELISA binding of RSV F antigen mutants, epitope Quaternary
Conditions: not given
Method: as §1, §2, §3, §4, §5

B3 and B4 are within 1.5-fold of each other in “ELISA binding amount, Epitope Quaternary, RSV pre-F antibody (7H11)” value (“ELISA binding amount, Epitope Quaternary” below): 29 ng/mL for the first, 39 ng/mL for the second.

Going from B5 to B1, the “ELISA binding amount, Epitope Quaternary” value rises from 922 ng/mL to 2873 ng/mL (3.1-fold).

B2 and B6 are within 1.5-fold of each other in “ELISA binding amount, Epitope Quaternary” value: 3722 ng/mL for the first, 4317 ng/mL for the second.

For B7, the “ELISA binding amount, Epitope Quaternary” value was 6346 ng/mL.

Same assay, conditions: antibody 7H11, relative to PC-RSV-064

B3 and B4 are the same in “Binding amount to antibody/binding amount of PC-RSV-064 to antibody, Epitope Quaternary” value: 0.01 for the first, 0.01 for the second.

First: B5
Second: B1
The “Binding amount to antibody/binding amount of PC-RSV-064 to antibody, Epitope Quaternary” value of the first is lower: 0.26 for the first, 0.80 for the second.

Going from B2 to B6, the “Binding amount to antibody/binding amount of PC-RSV-064 to antibody, Epitope Quaternary” value rises from 1.03 to 1.20.

For B7, the “Binding amount to antibody/binding amount of PC-RSV-064 to antibody, Epitope Quaternary” value was 1.76.
